PMC8855783
Values belong to the molecule of their own block, whether it stands above or below them.

Key:
NBD P9 PAI-1 = NBD P9 PAI-1 (UniProt P05121)
wild-type PAI-1 (human) [1] = biological target: wild-type PAI-1 (human) (UniProt P05121)
wild-type PAI-1 (human) [2] = biological target: wild-type PAI-1 (human) (UniProt P05121); remark: listed apart in the source
wild-type PAI-1 (human) [3] = biological target: wild-type PAI-1 (human) (UniProt P05121); remark: listed apart in the source

- Km ([PA] at half-saturation) of RCL insertion, no Nb, −Vn (NBD P9 PAI-1): 0.22 µM
- Km of RCL insertion, with Nb42, −Vn (NBD P9 PAI-1): 1.2 µM
- Km of RCL insertion, with Nb42 and Nb64, −Vn (NBD P9 PAI-1): 1.4 µM
- Km of RCL insertion, with Nb64, −Vn (NBD P9 PAI-1): 0.17 µM
- klim of RCL insertion (stopped-flow NBD fluorescence), no Nb, −Vn (NBD P9 PAI-1): 1.5 s⁻¹
- klim of RCL insertion, with Nb42 and Nb64, −Vn (NBD P9 PAI-1): 5.2 s⁻¹
- klim of RCL insertion, with Nb64, −Vn (NBD P9 PAI-1): 1.4 s⁻¹
- klim/Km of RCL insertion, with Nb42 and Nb64, +Vn ((μmol/ L)^−1 s^−1) (NBD P9 PAI-1): 1.1
- SI by SDS-PAGE, with Nb42, +Vn (wild-type PAI-1 (human) [1]): 1
- SI by SDS-PAGE, with Nb42, −Vn (wild-type PAI-1 (human) [1]): 1.1
- SI by SDS-PAGE, with Nb42 and Nb64, +Vn (wild-type PAI-1 (human) [1]): > 30
- SI by SDS-PAGE, with Nb42 and Nb64, −Vn (wild-type PAI-1 (human) [1]): 16.9
- SI by SDS-PAGE, with Nb64, +Vn (wild-type PAI-1 (human) [1]): > 30
- SI by SDS-PAGE, with Nb64, −Vn (wild-type PAI-1 (human) [1]): 15.6
- stoichiometry of inhibition (SI) by SDS-PAGE, no Nb, −Vn (wild-type PAI-1 (human) [1]): 1.1
Molecule: two-chain tissue-type plasminogen activator (enzyme)

- klim/Km of RCL insertion, no Nb, −Vn ((μmol/ L)^−1 s^−1) (NBD P9 PAI-1): 11.3
- klim/Km of RCL insertion, with Nb64, −Vn ((μmol/ L)^−1 s^−1) (NBD P9 PAI-1): 14.7
- SI by SDS-PAGE, no Nb, −Vn (wild-type PAI-1 (human) [1]): 1.1
- SI by SDS-PAGE, with Nb42, +Vn (wild-type PAI-1 (human) [1]): 1.1
- SI by SDS-PAGE, with Nb42, −Vn (wild-type PAI-1 (human) [1]): 1.2
- SI by SDS-PAGE, with Nb42 and Nb64, −Vn (wild-type PAI-1 (human) [1]): 12.4
- SI by SDS-PAGE, with Nb64, +Vn (wild-type PAI-1 (human) [1]): 10
- SI by SDS-PAGE, with Nb64, −Vn (wild-type PAI-1 (human) [1]): 27
- percent substrate reaction by SDS-PAGE, with Nb64, +Vn (wild-type PAI-1 (human) [2]): 90%
- percent substrate reaction by SDS-PAGE, with Nb64, −Vn (wild-type PAI-1 (human) [2]): 96%
Molecule: two-chain urokinase-type plasminogen activator (enzyme)

- IC50 of inhibition of PAI-1-wt activity, PAI-1/tPA, −Vn (wild-type PAI-1 (human) [3]): 87 nM
B1: VHH-2g-42 (VHH)
VHH: QVQLVESGGGLVQPGGRLRLSCAASGFTFRTYAMQWYRQSPGTERELVAAISNIGGVTDYGDSVKGRFTISRDNAKTTVYLEMNSLKPEDTATYYCSAVRLPQRYWGRGTQVTVSS

- IC50 of inhibition of PAI-1-wt activity, PAI-1/tPA, −Vn (wild-type PAI-1 (human) [3]): 16 nM
- IC50 of inhibition of PAI-1-wt activity, PAI-1/uPA, −Vn (wild-type PAI-1 (human) [3]): 4.6 nM
- IC50 of inhibition of the activity of Vn-bound PAI-1-wt, PAI-1/tPA (wild-type PAI-1 (human) [3]): 2.8 nM
- IC50 of inhibition of the activity of Vn-bound PAI-1-wt, PAI-1/uPA (wild-type PAI-1 (human) [3]): 2 nM
- maximum inhibition of PAI-1-wt activity, PAI-1/uPA, −Vn (wild-type PAI-1 (human) [3]): 88%
- maximum inhibition of the activity of Vn-bound PAI-1-wt, PAI-1/tPA (wild-type PAI-1 (human) [3]): 93%
B2: VHH-2w-64 (VHH)
VHH: QVQLVESGGGLVQAGGSLRLSCAASGFTFDDYSIAWFRQAPGKEREGVSCISSSDGSAYYADSVKGRFTISSDNAKNTVYLQMNSLKPEDTAVYYCAAVWARVCRNPYDYWGQGTQVTVSS
